These results are taken from article PMC3267324 (Molecular Cell, 2011).

The target of assay [1] is T1, GST-tagged full-length PARI (human, UniProt Q9NWS1 1-579).
T1 sequence (looked up): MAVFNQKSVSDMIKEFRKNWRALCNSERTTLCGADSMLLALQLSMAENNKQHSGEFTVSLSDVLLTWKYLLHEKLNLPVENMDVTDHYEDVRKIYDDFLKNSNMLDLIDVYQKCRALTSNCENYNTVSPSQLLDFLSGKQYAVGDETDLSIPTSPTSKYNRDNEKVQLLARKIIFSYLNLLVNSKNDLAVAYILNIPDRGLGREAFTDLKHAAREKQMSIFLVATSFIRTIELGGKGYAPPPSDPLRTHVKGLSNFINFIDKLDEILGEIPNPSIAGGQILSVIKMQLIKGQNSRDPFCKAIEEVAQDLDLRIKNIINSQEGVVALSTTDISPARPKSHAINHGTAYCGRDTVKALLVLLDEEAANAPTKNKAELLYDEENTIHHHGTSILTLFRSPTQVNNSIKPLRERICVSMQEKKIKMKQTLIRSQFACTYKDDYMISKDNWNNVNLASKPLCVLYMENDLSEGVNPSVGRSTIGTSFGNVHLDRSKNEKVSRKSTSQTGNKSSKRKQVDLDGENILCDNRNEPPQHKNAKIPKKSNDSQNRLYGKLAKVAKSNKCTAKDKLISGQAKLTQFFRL
Description: pull-down.

For assay [2], the target named is T2, Recombinant Flag-tagged PARI purified from insect cells (human, UniProt Q9NWS1 1-579).
T2 sequence (looked up): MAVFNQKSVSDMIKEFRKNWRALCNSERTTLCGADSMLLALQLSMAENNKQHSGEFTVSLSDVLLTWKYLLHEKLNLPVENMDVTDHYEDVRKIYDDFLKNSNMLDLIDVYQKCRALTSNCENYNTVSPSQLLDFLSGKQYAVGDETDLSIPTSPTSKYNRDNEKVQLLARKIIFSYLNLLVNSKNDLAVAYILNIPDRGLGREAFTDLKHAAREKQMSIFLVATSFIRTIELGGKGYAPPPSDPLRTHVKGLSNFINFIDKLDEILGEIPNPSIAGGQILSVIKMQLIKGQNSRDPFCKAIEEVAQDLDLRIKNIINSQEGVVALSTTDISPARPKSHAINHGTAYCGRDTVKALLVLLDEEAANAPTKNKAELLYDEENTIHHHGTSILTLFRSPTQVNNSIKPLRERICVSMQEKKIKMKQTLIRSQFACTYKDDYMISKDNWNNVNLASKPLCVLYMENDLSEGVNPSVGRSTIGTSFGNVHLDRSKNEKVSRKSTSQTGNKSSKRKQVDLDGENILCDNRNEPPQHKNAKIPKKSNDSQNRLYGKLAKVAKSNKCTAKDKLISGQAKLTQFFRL
As to the kind of experiment: pull-down.

B1: Recombinant human RAD51 expressed and purified from bacteria (natural protein, UniProt Q06609 1-339, looked up)
chain: MAMQMQLEANADTSVEEESFGPQPISRLEQCGINANDVKKLEEAGFHTVEAVAYAPKKELINIKGISEAKADKILAEAAKLVPMGFTTATEFHQRRSEIIQITTGSKELDKLLQGGIETGSITEMFGEFRTGKTQICHTLAVTCQLPIDRGGGEGKAMYIDTEGTFRPERLLAVAERYGLSGSDVLDNVAYARAFNTDHQTQLLYQASAMMVESRYALLIVDSATALYRTDYSGRGELSARQMHLARFLRMLLRLADEFGVAVVITNQVVAQVDGAAMFAADPKKPIGGNIIAHASTTRLYLRKGRGETRICKIYDSPCLPEAEAMFAINADGVGDAKD
For the molecule B1, the binding result in assay [1] was “binds”.

B2: GST-tagged human RAD51 (natural protein, UniProt Q06609 1-339, looked up)
chain: MAMQMQLEANADTSVEEESFGPQPISRLEQCGINANDVKKLEEAGFHTVEAVAYAPKKELINIKGISEAKADKILAEAAKLVPMGFTTATEFHQRRSEIIQITTGSKELDKLLQGGIETGSITEMFGEFRTGKTQICHTLAVTCQLPIDRGGGEGKAMYIDTEGTFRPERLLAVAERYGLSGSDVLDNVAYARAFNTDHQTQLLYQASAMMVESRYALLIVDSATALYRTDYSGRGELSARQMHLARFLRMLLRLADEFGVAVVITNQVVAQVDGAAMFAADPKKPIGGNIIAHASTTRLYLRKGRGETRICKIYDSPCLPEAEAMFAINADGVGDAKD
In the case of B2, in assay [2], the binding result is “binds”.
